For series [1], the target named is Zif268 variant A14 finger 3 helix residues changed (FIG. 9) (synthetic (Zif268 variant)) (UniProt Q6NTY6). Briefly: SPR. For orientation: Surface plasmon resonance follows binding to a sensor surface in real time, without labels.
Series [2] addresses Zif268 variant C9 finger 1 helix residues changed (FIG. 9) (synthetic (Zif268 variant)) (UniProt Q6NTY6). The experiment in a line: SPR. The conditions noted are these: equivalent to Zif268.
Series [3] has as its system Zif268 variant G4 finger 2 helix residues changed (FIG. 9) (synthetic (Zif268 variant)). Briefly: SPR.
The test system of series [4] is Zif268 variant G6 finger 2 helix residues changed (FIG. 9) (synthetic (Zif268 variant)). The experiment in a line: SPR.
The test system of series [5] is MBP-C7-C7 (six-finger) (synthetic (Zif268 variant, mouse)). The experiment in a line: EMSA. For orientation: Mobility shift assays separate free from complexed probe on a gel.
Series [6] relates to MBP-Sp1C-C7 (six-finger) (synthetic (Sp1C/Zif268 variant)). Briefly: EMSA.
For series [7], the target named is MBP-Sp1C (synthetic (human Sp1 variant)) (UniProt P08047). Briefly: EMSA. The conditions noted are these: 0.1 mM ZnCl2, RT.
MBP-Sp1C (synthetic (human Sp1 variant)), sequence (P08047 626-708, change not shown): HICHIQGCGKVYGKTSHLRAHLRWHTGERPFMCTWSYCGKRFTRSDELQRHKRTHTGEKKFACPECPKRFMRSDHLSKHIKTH
In series [8] the test system is C7-C7-VP16 (synthetic (Zif268 variant)). Briefly: cell_activity. The conditions noted are these: HeLa luciferase reporter. On the technique in general: Reporter assays use an easily measured gene product as a stand-in for the process of interest.
Series [9] addresses Zif268 displayed on phage (Mus musculus) (UniProt P08046). Briefly: SELEX. The conditions noted are these: phage panning, same level as BSA.
Setting [10] is: 0.1 mM ZnCl2, 100 mM KCl, poly(dI-dC), RT.
Where [11] appears, read: 9 bp half-site, 0.1 mM ZnCl2, RT.

This is an account of results in patent US6140466.

Zif268 variant C9 finger 1 helix residues changed (FIG. 9) (synthetic (Zif268 variant)), sequence (Q6NTY6 whole entry, change not shown): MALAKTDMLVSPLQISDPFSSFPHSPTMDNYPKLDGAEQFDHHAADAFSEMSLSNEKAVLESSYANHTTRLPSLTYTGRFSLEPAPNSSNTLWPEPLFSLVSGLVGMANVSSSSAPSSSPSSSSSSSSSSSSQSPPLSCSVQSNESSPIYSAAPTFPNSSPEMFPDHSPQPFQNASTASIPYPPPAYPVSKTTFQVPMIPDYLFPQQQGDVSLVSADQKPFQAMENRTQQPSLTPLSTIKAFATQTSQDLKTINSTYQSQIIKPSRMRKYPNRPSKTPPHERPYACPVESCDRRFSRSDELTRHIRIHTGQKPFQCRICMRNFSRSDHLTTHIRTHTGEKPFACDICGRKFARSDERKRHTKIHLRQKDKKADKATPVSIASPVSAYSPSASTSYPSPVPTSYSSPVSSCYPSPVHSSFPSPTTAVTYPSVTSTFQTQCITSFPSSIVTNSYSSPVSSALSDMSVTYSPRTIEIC
Zif268 variant A14 finger 3 helix residues changed (FIG. 9) (synthetic (Zif268 variant)), sequence (Q6NTY6 whole entry, change not shown): as above

In [1], “CCTGCGTGGGCGCCCTTTTGGGCGCCCACGCAGG [Z268N consensus hairpin]” displayed a binding signal (fold lower affinity than Zif268) of 2. In addition, the binding signal (fold of Zif268 affinity) in series [2] came to 1. Besides, the binding signal (fold weaker than TTG site) in series [3] and in series [4] was 4 each time.

Regarding “CCTGCGTTGGCGCCCTTTTGGGCGCCAACGCAGG [TTG finger 2 hairpin (HIV-1 subsite)]”, the binding signal (fold of Zif268-consensus affinity) in series [3] (equivalent to Zif268 on its consensus) and in series [4] (specificity by on-rate) was 1 in each case.

With “GATGTATGTAGCGGCGGCGGCGGCGGCGTAAGTAATGC (double strand) [(GCG)6 site probe]”, the Kd (commonly the constant that tells how readily two partners part at equilibrium) in [5] (0.1 mM ZnCl2, RT) is 17.3 nM.

Consider “GATGTATGTAGCGTGGGCGGCGTGGGCGTAAGTAATGC (double strand) [C7-C7 site probe]”, for which the Kd in [5] (setting [10]) amounted to 0.46 nM; in series [6] (0.1 mM ZnCl2, RT), 1.8 nM.

On to “GATGTATGTAGCGTGGGCGGGGGCGGGGTAAGTAATGC (double strand) [Sp1C-C7 site probe]”, for which the Kd in series [5] (setting [10]) was determined as 2.4 nM; in series [6] (setting [10]), 0.55 nM.

For the substance “GATGTATGTAGCGTGGGCGTAAGTAATGC (double strand) [C7 site probe]”, the Kd in [5] (setting [11]) came to 6.1 nM; in series [6] (setting [11]), 4.9 nM.

Turning to “GATGTATGTAGGGGCGGGGTAAGTAATGC (double strand) [Sp1C site probe]”, the Kd in series [7] was 40.8 nM; in series [6] (setting [11]) it was 27.4 nM.

Consider “GCGTGGGCG (double strand) [6x C7 site SV40 promoter reporter]”, for which the activity (fold activation) in [8] stood at 3.

With “GCGTGGGCGGCGTGGGCG (double strand) [6x C7-C7 site SV40 promoter reporter]”, the activity (fold activation) in series [8] is above 300.

Consider “GCGTGGGCGGGGGCGGGG (double strand) [6x Sp1C-C7 site SV40 promoter reporter]”, for which the activity (fold activation) in [8] turned out to be 3.

With TFIIIA fingers 1-3 site (panning), in series [9], the binding signal (fold less than consensus) stood at 9.
